Test [1] concerns the target T1, Jchain (joining chain) peptide on HLA-A*01:01 (human).
T1 peptide: YTAVVPLVY
Put plainly: multimer staining.

A further test deals with T2, HLA-A*02:01 (human).
T2 construct: also called HLA-A2
Put plainly: stable pHLA monomer refolding.

The next test concerns the target T3, HLA-A*01:01 (human).
T3 construct: also called HLA-A1
Put plainly: stable pHLA monomer refolding.

A further test deals with HLA-A*24:02 (human). Put plainly: stable pHLA monomer refolding.
The target of test [2] is T4, Jchain (joining chain) peptide on HLA-A*11:01 (human).
T4 peptide: ISDPTSPLRTR
Put plainly: NSG mice with established U266 + HLA-A11 + luciferase; 3-6x10^6 TCR-transduced CD8 T cells i.v.; bioluminescence; full-length, on cells.
Source text: (§1) Subsequently, mice were infused with 3-6×10\hat{ }6 Jchain HLA-A1, -A24, -A3 or -A11 TCR or irrelevant CMV TCR Td CD8 T cells after which tumor outgrowth was followed measuring bioluminescence at regular intervals (FIG. 7A,B).

Test [3] has as its target T5, Jchain (joining chain) peptide on HLA-A*03:01 (human).
T5 peptide: ISDPTSPLRTR
Put plainly: killing.

Test [4] has as its target T6, Jchain (joining chain) peptide on HLA-A*24:02 (human).
T6 peptide: CYTAVVPLV
Put plainly: NSG mice with established U266 + HLA-A24 + luciferase; 3-6x10^6 TCR-transduced CD8 T cells i.v.; bioluminescence; full-length, on cells.
Source text: as §1

The next test has as its target HLA-A*11:01 (human). Put plainly: stable pHLA monomer refolding.
The target of another test is T7, HLA-A*03:01 (human).
T7 construct: also called HLA-A3
Put plainly: stable pHLA monomer refolding.

Test [5] deals with T4, Jchain (joining chain) peptide on …. Put plainly: killing.
In test [6] the target is T5, Jchain (joining chain) peptide on …. Put plainly: NSG mice with established wild-type HLA-A3pos U266 + luciferase; TCR-transduced CD8 T cells i.v.; bioluminescence; complete eradication in hIL-7/hIL-15 NSG mice (FIG. 15); full-length, on cells.
In another test the target is HLA-B*40:01 (human). Put plainly: stable pHLA monomer refolding.

B1: TCR clone 13F6.6 (TCR, V domains shown)
Valpha: AQSVSQHNHHVILSEAASLELGCNYSYGGTVNLFWYVQYPGQHLQLLLKYFSGDPLVKGIKGFEAEFIKSKFSFNLRKPSVQWSDTAEYFCAASSGGYQKVTFGIGTKLQVIP
Vbeta: DVKVTQSSRYLVKRTGEKVFLECVQDMDHENMFWYRQDPGLGLRLIYFSYDVKMKEKGDIPEGYSVSREKKERFSLILESASTNQTSMYLCASSLRREVGDTQYFGPGTRLTVL
In the case of B1, the binding result in test [1] was “recognises”.

On to VLAVFIKAVHV (also called VLA1 peptide) [Jchain derived peptide VLAVFIKAVHV (SEQ ID NO: 103)], for which, in the test with HLA-A*02:01, the binding result is listed as “binds”.

As for YTAVVPLV [Jchain derived peptide YTAVVPLV (SEQ ID NO: 105)], the binding result with HLA-A*02:01 is reported as “binds”.

TAVVPLVY (also called TAV peptide) [Jchain derived peptide TAVVPLVY (SEQ ID NO: 102)]: the binding result with HLA-A*01:01 is on record as “binds”.

As to CYTAVVPLV (also called CYT peptide) [Jchain derived peptide CYTAVVPLV (SEQ ID NO: 100)], in the test with HLA-A*24:02, the binding result was “binds”.

B2: TCR clone 16C7.9 (TCR, V domains shown)
Valpha: AQKITQTQPGMFVQEKEAVTLDCTYDTSDPSYGLFWYKQPSSGEMIFLIYQGSYDQQNATEGRYSLNFQKARKSANLVISASQLGDSAMYFCAMREDYTGGFKTIFGAGTRLFVKA
Vbeta: GAGVSQTPSNKVTEKGKYVELRCDPISGHTALYWYRQSLGQGPEFLIYFQGTGAADDSGLPNDRFFAVRPEGSVSTLKIQRTERGDSAVYLCASSLISGGNEQFFGPGTRLTVL
For B2, the “fold lower tumor load than in CMV TCR control mice” value (shortened to “fold lower tumor load than”) in test [2] was found to be 190 fold. For the same molecule, in [3], the binding result is “no recognition”.

B3: TCR clone 10H11.11 (TCR, V domains shown)
Valpha: EDQVTQSPEALRLQEGESSSLNCSYTVSGLRGLFWYRQDPGKGPEFLFTLYSAGEEKEKERLKATLTKKESFLHITAPKPEDSATYLCAVLSGGSYIPTFGRGTSLIVHP
Vbeta: DTGVSQDPRHKITKRGQNVTFRCDPISEHNRLYWYRQTLGQGPEFLTYFQNEAQLEKSRLLSDRFSAERPKGSFSTLEIQRTEQGDSAMYLCASSPLLRDSEEKLFFGSGTQLSVL
As for B3, the “fold lower tumor load than” value in test [4] worked out at 209 fold.

As for RIIVPLNNR (also called RII peptide) [Jchain derived peptide RIIVPLNNR (SEQ ID NO: 106)], in the test with HLA-A*11:01, the binding result is reported as “binds”.

B4: TCR clone 4G8.8 (TCR, V domains shown)
Valpha: AQTVTQSQPEMSVQEAETVTLSCTYDTSENNYYLFWYKQPPSRQMILVIRQEAYKQQNATENRFSVNFQKAAKSFSLKISDSQLGDTAMYFCAFMKHVEYGNKLVFGAGTILRVKS
Vbeta: DAGITQSPRHKVTETGTPVTLRCHQTENHRYMYWYRQDPGHGLRLIHYSYGVKDTDKGEVSDGYSVSRSKTEDFLLTLESATSSQTSVYFCAARDSANEKLFFGSGTQLSVL
Regarding B4, the binding result in [1] was “recognises”.

In the case of ISDPTSPLRTR (also called ISD peptide) [Jchain derived peptide ISDPTSPLRTR (SEQ ID NO: 101)], the binding result with HLA-A*11:01 and in the test with HLA-A*03:01 was “binds” each time.

B5: TCR clone 5C8.16 (TCR, V domains shown)
Valpha: AQSVTQLDSHVSVSEGTPVLLRCNYSSSYSPSLFWYVQHPNKGLQLLLKYTSAATLVKGINGFEAEFKKSETSFHLTKPSAHMSDAAEYFCVVKWADSWGKLQFGAGTQVVVTP
Vbeta: AAGVIQSPRHLIKEKRETATLKCYPIPRHDTVYWYQQGPGQDPQFLISFYEKMQSDKGSIPDRFSAQQFSDYHSELNMSSLELGDSALYFCASSLGTGNFYEQYFGPGTRLTVT
Regarding B5, in test [5], the binding result is listed as “no recognition”. For the same molecule, in [6], the “fold lower tumor load than” value came to 70 fold.

In the case of GETKMVETAL (also called GET peptide) [Jchain derived peptide GETKMVETAL (SEQ ID NO: 107)], the binding result in the test with HLA-B*40:01 is reported as “binds”.

As to VLAVFIKAV (also called VLA2 peptide) [Jchain derived peptide VLAVFIKAV (SEQ ID NO: 104)], in the test with HLA-A*02:01, the binding result is “binds”.
